In the supplement of paper PMC12764529:
± gives the half width of the 95% confidence interval.

Legend:
[1] = folding stability dG unfold from chymotrypsin proteolysis; higher = more stable
How it was run: (§1)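 Unfolding free energy was derived, per protease or combined, by relating Bayesian-fitted K50 values from sequencing counts to a sequence-predicted unfolded-state K50 and a shared folded-state K50. The underlying digests exposed cysteine-free mini-proteins under 80 residues, in a PA-tagged cDNA display construct, to trypsin and chymotrypsin at 11 threefold-diluted concentrations and to a no-protease condition. A filter kept only designs with AlphaFold2 dimer inter-PAE above 15.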

[2] = folding stability dG unfold from trypsin proteolysis; higher = more stable
How it was run: as §1

[3] = folding stability dG unfold (combined trypsin and chymotrypsin); higher = more stable
How it was run: as §1

Sequence	folding stability dG unfold [1] [kcal/mol]	folding stability dG unfold [2] [kcal/mol]	folding stability dG unfold [3] [kcal/mol]
SAGGSAGGSAKKITVEITIEVNGKKYKVKAEIELDEETKTLTIKVTFPDGTEFEFTFKLPEESAGGSAGGSA [r18_239_TrROS_Hall]	5.72 ± 0.13	3.86 ± 0.22	5.76 ± 0.41
ITIRIPPNGNIRIEMIDPNGKWWTYTFPVKDPEENLQRLKDIIRDFFPGFEDVDVKITEVEDGWVTITVPLS [r1_389_TrROS]	4.96 ± 0.23	4.05 ± 0.17	4.76 ± 0.21
SAGGRYWKLTTPPDRPLRLVIEPVPLEDTPEEYGSRLYIPNTGKVYYFPLKYAQEILDLPWIERLEPVSAGG [r19_302_TrMRF]	0.343 ± 0.21	0.903 ± 0.096	0.664 ± 0.11
MRITLEHPDIKRLTIEFRPMPDGYFRMDIKVERPDGKPVPIPFPMRYEDGKMTPEMMEQMIDEAVEEALADS [r1_124_TrROS]	0.617 ± 0.2	0.608 ± 0.077	0.689 ± 0.21
SAKKLIIKVEVETFDEETGELKTEERTIEADTLEDALAEIERELPPGARVRIEVFDADGKLVETIEIELSAG [r14_234_TrROS_Hall]	3.1 ± 0.091	4.41 ± 0.23	3.92 ± 0.15
SAGGSAGGEIEILPGAKIVRVERRKDGSLLIVVEVDGKLYLFRFKDGKVEVIELPEGASLEELLSAGGSAGG [r6_680_TrROS_Hall]	4.99 ± 0.086	4.23 ± 0.14	4.92 ± 0.087
SAGGSAGGSAGMITIYAPPSVPVEEVREEVKEKIKKENPNDPKEVKGVEVDPNGSLEELESAGGSAGGSAGG [r17_43_JUSTAS]	-0.655 ± 0.31	-0.286 ± 0.12	
KTYTIDEIAEKLGMSKEELKNMSAEEIKEALKKLLPPEEIEKVEISYNEKDKKVTITVTLKNGEKVEITIDS [r1_340_TrROS_Hall]	5.06 ± 0.23	4.04 ± 0.71	
SAGGSAGGSAGGKKKLKIKIEIKIEEKIKKTPNGKLEKEKKIEITKIIEIEPDSPLLKKLSAGGSAGGSAGG [r7_889_TrROS_Hall]	0.948 ± 0.29	2.17 ± 0.14	
SAGGSAGGDPNKPPPPKQIEIPIPPDNITDVEPNPDGFYFMEFNLPDGDSITIIVYPDGNIHIMSAGGSAGG [r6_119_TrROS]	4.25 ± 0.34	2.83 ± 0.28	
SAGGDVGLEEKAREIAEELREEISKKLGVNVKVTEVKVEYDPKTGKYTVTVTITLPGGETITITVPESAGGS [r8_372_JUSTAS]	4.36 ± 0.54	3.85 ± 0.32	
SAGGKPKKKPPPVIEIVDIRVEYDPETKEVRITVKIRLPNGETLTLTITVPPGTTLEELLEKLKELLSSAGG [r13_578_TrROS_Hall]	2.71 ± 0.11	4.11 ± 0.61	
SAGGSAGGSAGGSMPYVVVVKYPDGSTVTFPPGEDINVKVSPDKKGVEVVSVVPLSELLSAGGSAGGSAGGS [r4_122_JUSTAS]		0.179 ± 0.054	-0.332 ± 0.2
SAGGWRMEIEFPGINPEELRKAIAEAPGNKDVDVDVERIPKDGSVKIEMHGNNPADRKRIQKAVKKAFSAGG [r13_580_TrROS]		-0.928 ± 0.47	< -1
SAGGSAGGSAGMIVIETPLSEYEKLKSPDIEVLEKSEGKVVIEIKVPPEPFYDEEGKPLKSAGGSAGGSAGG [r11_828_JUSTAS]		0.804 ± 0.034	0.286 ± 0.13
SAGGSAGGSAGMTISLSDLTKKGDIEKAKEEVEEIKKKNPEPKVEKVSVPPEKNEIYKLESAGGSAGGSAGG [r11_365_JUSTAS]		-0.308 ± 0.22	< -1
SAGGNYYPMEFRNPENNHEIRITVERDPPGMYRINIQIENPNGNQIPFPMTMPPDDFKPGDEFEIKIPSAGG [r13_959_TrROS]		0.676 ± 0.16	0.213 ± 0.44
SAGGQTIEIPNGITITYYPNNQVTITIRYPGRPLTVTSPYDSPEEAIDNIIEQAREMARPPPPKKKDDSAGG [r13_896_TrROS]		0.633 ± 0.16	0.68 ± 0.41
SAGGMKVEVVETPTSLQIVTTTISTEKIPFNDVTLTTVTTEVKTIPLPEKPPVGLPYFDPEGKPLLLSAGGS [r8_46_JUSTAS]		-0.0171 ± 0.07	-0.424 ± 0.18
SYRPITIQMPSPEDLKKLEEAFEDDGFENVNIHRDPPGWHTITITQKGPPEQLQDRIREAFDENGFQIQPSA [r9_1003_TrROS]		0.0855 ± 0.11	< -1
SAGGSAGGSAGGMVRFPDGKEVETESEEELEELLKGVPVEEITIEDPEEKGEKKIPVKLSAGGSAGGSAGGS [r10_1191_JUSTAS]		0.137 ± 0.044	-0.942 ± 0.48
SMEIKVTVEEKDGKKYVTIEIKLSEEELKGKELTEEEIEELARELAKKLGIKEVKIERLPNGTYRIVIELSA [r9_883_TrROS_Hall]		4.47 ± 0.39	> 6
SAGGSAGGSAGGMKIVLKVPENNPEAEKEAKKLKEEPGLKEVEVEFIPKSLVPEEPVLLSAGGSAGGSAGGS [r10_1110_JUSTAS]		-0.334 ± 0.28	< -1
SAGGSAGGSAMTIQINNLPPEKIEEAADDHGIDTQRNEESDSYYIEMPPNDMDEIKEALGWSAGGSAGGSAG [r3_354_TrROS]		0.725 ± 0.052	0.222 ± 0.17
SAGMVTFIDTTPGKAVVAVEDPATGTSRTIELDLDSPDGRPASLEEIKKVVEELVKEERPDLTVDVKLASAG [r5_293_JUSTAS]		-0.506 ± 0.15	< -1
